In this test the test system is hWAT-SVF and hBAT-SVF progenitors. Briefly: Glucose uptake, fatty acid uptake and oxidation in adipocytes from BMP7 pre-treated progenitors. The format is cell-based, human. To be noted: hWAT-SVF from both subjects and hBAT-SVF from Subject 2; 3.3 nM BMP7 pre-exposure 6 days. The procedure:
FIG. 6B depicts OCR assayed using the Seahorse extracellular flux analyzer in differentiated hWA and hBA from Sub1 and Sub2 that were pre-treated with 3.3 nM BMP7 or vehicle (Veh) for 6 days and then differentiation into mature adipocytes. Equal numbers of progenitors were plated and differentiated. Quantification of OCR in the absence (Basal Res.) and presence of oligomycin (Proton Leak) or FCCP (Max. Res.) are shown. Data are presented as mean±s.e.m. (n=10; two-tailed Student's t-test; *P<0.05, **P<0.01, ***P<0.001). A representative experiment from a total of two independent studies is shown. Data are represented in the same order as appeared in the legend. […]
After serum starvation in DMEM/H medium containing 1% of BSA for 2-3 h, differentiated human white and brown adipocytes were washed with HEPES buffer. […] Glucose transport was determined by the addition of 2-deoxy-[^3H]glucose (0.1 mM, 0.5 μCi/mL; PerkinElmer Life and Analytical Science, Waltham, Mass.). […] Cells were then lysed in 0.1% SDS, and glucose uptake was assessed in 4 mL of scintillant using Beckman LS6500 scintillation counter (Beckman Coulter, Indianapolis Ind.). Nonspecific 2-deoxy-[^3H]glucose uptake was measured in the presence of cytochalasin B (20 μM) and was subtracted from the total uptake to get specific glucose uptake. Results were expressed as the mean±s.e.m. of the indicated number of experiments. […]

B1: BMP7: Recombinant human BMP7, an inducer of brown adipogenesis (protein, UniProt P18075 293-431, looked up)
Bone morphogenetic protein 7: STGSKQRSQNRSKTPKNQEALRMANVAENSSSDQRQACKKHELYVSFRDLGWQDWIIAPEGYAAYYCEGECAFPLNSYMNATNHAIVQTLVHFINPETVPKPCCAPTQLNAISVLYFDDSSNVILKKYRNMVVRACGCH
Consider B1, for which the “fuel utilization in mature adipocytes” value is listed as “enhanced”.

Values taken from patent US11078259B2, “Methods and compositions for promoting thermogenic potential” (Joslin Diabetes Center, Inc., priority 2015, dated 2021).
